Assay results published in publication PMC2877719 (2010).
No end group written: not given here.

These binders were tested against calmodulin (Homo sapiens, UniProt P0DP23) (assay: FCS).
With LRKRIVFRKI (also: fluorescent label, unspecified) the Kd was 327 nM.
FARLTRALTSSRGVL (also: fluorescent label, unspecified) [hEAG1 BD-N] gave a Kd of 45 nM.
Binder LRKRIVFRKI (also: GST fusion) has a Kd greater than 5000 nM.
Work on RRLFQRFRQQK (also: fluorescent label, unspecified) [hEAG1 BD-C2] yielded a Kd of 223 nM.
